According to patent publication US20030099608A1 (ZymoGenetics, published 2003):

Tests used:
[1] = target: human IL-TIF (T-cell inducible Factor) (human) (UniProt Q9GZX6); assay: cell-based or functional assay
[2] = target: T1, CRF2-4/zcytor11 heterodimeric receptor on BaF3 cells (BaF3/CRF2-4/zcytor11 cells) (human, UniProt Q08334 20-325; Q8N6P7 16-574); assay: cell-based or functional assay
T1 sequence (looked up) 1: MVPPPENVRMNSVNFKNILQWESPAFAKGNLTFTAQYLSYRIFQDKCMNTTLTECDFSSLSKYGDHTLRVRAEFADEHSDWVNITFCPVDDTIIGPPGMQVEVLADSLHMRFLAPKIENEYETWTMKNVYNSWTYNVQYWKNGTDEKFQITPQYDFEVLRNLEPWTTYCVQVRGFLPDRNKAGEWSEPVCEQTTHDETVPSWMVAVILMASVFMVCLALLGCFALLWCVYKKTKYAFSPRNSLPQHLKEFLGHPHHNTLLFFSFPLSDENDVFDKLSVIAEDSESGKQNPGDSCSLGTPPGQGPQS
T1 sequence (looked up) 2: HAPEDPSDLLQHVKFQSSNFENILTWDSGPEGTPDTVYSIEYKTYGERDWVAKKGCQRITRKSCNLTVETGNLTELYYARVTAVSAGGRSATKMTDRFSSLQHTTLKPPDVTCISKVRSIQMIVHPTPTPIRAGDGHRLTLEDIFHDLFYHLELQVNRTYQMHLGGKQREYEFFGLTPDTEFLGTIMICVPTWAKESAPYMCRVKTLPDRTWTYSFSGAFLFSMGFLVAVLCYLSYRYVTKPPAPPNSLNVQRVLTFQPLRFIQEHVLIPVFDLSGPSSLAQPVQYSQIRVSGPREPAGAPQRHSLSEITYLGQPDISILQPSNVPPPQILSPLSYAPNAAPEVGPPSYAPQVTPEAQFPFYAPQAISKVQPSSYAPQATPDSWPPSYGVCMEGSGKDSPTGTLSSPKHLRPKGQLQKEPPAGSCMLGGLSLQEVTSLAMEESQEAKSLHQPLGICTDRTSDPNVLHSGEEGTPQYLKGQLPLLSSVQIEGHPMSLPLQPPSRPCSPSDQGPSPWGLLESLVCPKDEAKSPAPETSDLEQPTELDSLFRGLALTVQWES

Molecule: secreted hzcytor11/hCRF2-4 heterodimer (CRF2-4/zcytor11-Fc4) (Fc fusion)
- concentration of CRF2-4/zcytor11-Fc4 at which inhibition of proliferation induced by 100 pg/ml IL-TIF was barely detectable [1]: 63 ng/mL
- concentration of CRF2-4/zcytor11-Fc4 giving complete inhibition of proliferation induced by 100 pg/ml IL-TIF [1]: 8 µg/mL

B1: IL-TIF-CEE (IL-TIF polypeptide with C-terminal Glu-Glu tag) (ligand)
chain: APISSHCRLDKSNFQQPYITNRTFMLAKEASLADNNTDVRLIGEKLFHGVSMSERCYLMKQVLNFTLEEVLFPQSDRFQPYMQEVVPFLARLSNRLSTCHIEGDDLHIQRNVQKLKDTVKKLGESGEIKAIGELDLLFMSLRNACIEYMPME
- proliferation of BaF3/CRF2-4/zcytor11 cells (Alamar Blue), fold induction at 0.06 ng/ml IL-TIF-CEE [2]: 2 fold induction
- proliferation of BaF3/CRF2-4/zcytor11 cells (Alamar Blue), fold over background at 50 ng/ml IL-TIF-CEE [2]: ~15 fold over background

B2: human IL-TIF (T-cell inducible Factor) (ligand)
chain: APISSHCRLDKSNFQQPYITNRTFMLAKEASLADNNTDVRLIGEKLFHGVSMSERCYLMKQVLNFTLEEVLFPQSDRFQPYMQEVVPFLARLSNRLSTCHIEGDDLHIQRNVQKLKDTVKKLGESGEIKAIGELDLLFMSLRNACI
- proliferation of BaF3/CRF2-4/zcytor11 cells (Alamar Blue), fold over background with 100 pg/ml IL-TIF alone [2]: 13 fold over background
